The values that follow come from US20260258147A1 (Merck Sharp & Dohme, published 2026).

First the molecules themselves.
T1: membrane-bound rhesus MSLN (Rhesus (Macaca mulatta))
T1 construct: The expressed construct is not described further; also called Rh MSLN-CHOK1; RhMSLN
T1 chain: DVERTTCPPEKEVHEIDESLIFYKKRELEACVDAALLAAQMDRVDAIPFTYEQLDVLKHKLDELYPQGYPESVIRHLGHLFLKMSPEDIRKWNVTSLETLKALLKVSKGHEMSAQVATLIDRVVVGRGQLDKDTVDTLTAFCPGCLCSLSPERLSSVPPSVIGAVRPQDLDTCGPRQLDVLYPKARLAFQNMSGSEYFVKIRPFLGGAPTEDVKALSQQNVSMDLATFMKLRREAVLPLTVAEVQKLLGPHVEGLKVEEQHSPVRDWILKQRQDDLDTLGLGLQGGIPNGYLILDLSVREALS

T2: soluble rhesus MSLN (87BIC) (Rhesus (Macaca mulatta))
T2 construct: Purified soluble protein coated on the ELISA plate; also called Rh MSLN (87BIC); purified rhesus MSLN
T2 chain: T1 chain

B1: SV017.47D7.1C2 (antibody, V domains shown)
VH: EVQLVESGGGLVQPGGSLRLSCAATGFTFSSYWMHWVRQGPGKGLVWVSRINSDGTSTVYADSVKGRFTISRDNAKNTLYLQMNSLRAEDTAVYYCARGRGIMTYWGQGTLVTVSS
VL: DIQMTQSPSSLSASVGDRVTITCRASQDIGSWLTWYQRKPEKAPKSLIYAASSLQSGVPSRFSGSGSGTDFTLTISSLQPEDFATYYCQQYKSYPLTFGQGAKLEIK
notes: also called antibody from hybridoma clone SV017.47D7.1C2
B2: SV017.51F4.1A1 (antibody, V domains shown)
VH: B1 VH
VL: B1 VL
notes: also called antibody from hybridoma clone SV017.51F4.1A1
B3: SV017.13B12.1E1 (antibody, V domains shown)
VH: B1 VH with Y80H
VL: B1 VL
notes: also called antibody from hybridoma clone SV017.13B12.1E1
B4: SV017.50G3.1B1 (antibody, V domains shown)
VH: B1 VH with G16E, Y80F
VL: B1 VL
notes: also called antibody from hybridoma clone SV017.50G3.1B1
B5: SV018.45B6.1G1 (antibody, V domains shown)
VH: QVQLLQSGAEVKKPGASVKVSCKASGYTFTTYGISWVRQAPGQGLEWLGWITAYNRNTNYAQKLQGRVTMTTDTSTSTSFMVLRSLRSDDTAVYYCARVGDSDAFDIWGQGTMVTVSS
VL: EIVMTQSPATLSLSPGERATLSCRTSQSVFNSFLSWYQQKPGQAPRLLLYGTSTRATGIPARFSGSGSGTDFTLTISSLQPEDFAVYYCQQDYKLPLTFGGGTKVEIK
notes: also called SV018.45.1G1
B6: SV018.20B12.1D1 (antibody, V domains shown)
VH: QVQLQESGPGLVKPSETLSLTCTVSGGSISSYYWSWIRQPPGKGLEWIGYIYYSGSTNYNPSLKSRVTISVDTSKNQFSLKLSSVTAADTAVYYCARTGYIPMDVWGQGTTVTVSS
VL: EIVLTQSPDFQSVTPKEKVTITCRASQSIGSNLHWYQQKPDQSPKLLIKYVSQSFSGVPSRFSGSGSGTDFTLTINSLEAEDAATYYCHQSRSLPYTFGQGTKLEIK
notes: also called antibody from hybridoma clone SV018.20B12.1D1

Where a chain is given by its changes, count along the chain named.

The first test has as its target T1, membrane-bound rhesus MSLN. Kind of test: cell ELISA, CHOK1 cells expressing rhesus MSLN. The protocol: (§1) The wells of a 96-well plate are seeded with sufficient cells to provide 95-100% confluency on day 0 (the day of assay). On day 0 the culture medium is removed and 50 μL/well hybridoma supernatant fraction, or purified antibody starting at 10 μg/mL or equal molar concentration and serially diluted 4 or 5-fold in CHO medium (DMEM F12, 10% Bovine serum). The plate is then incubated for an hour at room temperature or a temperature up to 37° C. Next, about 50 μL of a pre-determined concentration of ligand is added to the wells of the plate and the plate incubated for 30 minutes at room temperature or a temperature up to 37° C. The plate wells are washed with ELISA wash (PBS containing 0.05% polysorbate 20. Next, 50 μL/well of HRP-conjugated anti-species IgG diluted 1:2000 in CHO medium is added to the wells and the plate incubated for an hour at room temperature or a temperature up to 37° C. HRP conjugated anti-species IgG include goat anti-mouse IgG-HRP (Southern Biotech, cat #1030-05), goat anti-rat IgG-HRP (Southern Biotech, cat #3030-05), and goat anti-human IgG-HRP (Jackson Immunologics, cat #109-036-098). The plate wells are washed with the ELISA wash. Next, 50 μL/well TMB substrate (1 step Ultra TMB-ELISA: Thermo Fisher, Cat #34029) is added to the wells. When the blank starts to turn blue, 50 μL/well TMB stop solution (KPL, Cat #50-85-06) is added to the wells and A450-A620 is measured on an ELISA reader.
(§2) The OVACAR3 cell line is a human ovarian cancer cell line that expresses high levels of human MSLN.
On the technique in general: In an ELISA, binding on a coated surface is turned into a signal by an enzyme label.
As a reminder, the EC50 is the concentration needed to bring the measured effect to its halfway point. Molecule B1 returned an EC50 of 0.26 µg/mL.

With B2, it took 0.26 µg/mL to reach a half-maximal effect (EC50).

Consider B3, for which the response was half-maximal at 0.23 µg/mL (EC50).

In turn, B4 yielded an EC50 of 0.33 µg/mL.

As for B5, the binding result was “no binding”.

Take B6: the binding result is given as “no binding”.

The target of the next test is T3, membrane-bound human MSLN (human, UniProt Q13421 296-598).
T3 construct: the assay field says which; The construct expressed in CHOK1 is not described further; also called HuMSLN-CHOK1; human mesothelin on CHOK1 cells
T3 sequence (Q13421 other isoform, or with tags, fused parts or gaps limits assumed): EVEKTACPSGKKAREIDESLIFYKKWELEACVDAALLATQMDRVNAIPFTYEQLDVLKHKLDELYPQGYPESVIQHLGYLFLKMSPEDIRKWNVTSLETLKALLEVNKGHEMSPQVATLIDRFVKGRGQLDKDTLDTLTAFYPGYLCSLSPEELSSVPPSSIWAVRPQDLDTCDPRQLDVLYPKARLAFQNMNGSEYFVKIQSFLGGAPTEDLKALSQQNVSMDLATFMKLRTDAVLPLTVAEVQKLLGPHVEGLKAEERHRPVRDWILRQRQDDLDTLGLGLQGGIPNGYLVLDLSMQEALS
Kind of test: cell ELISA, CHOK1 cells expressing human MSLN. The protocol: as §1, §2
Consider B1, for which a half-maximal effect (EC50) was put at 0.03 µg/mL.

Consider B2, for which the response was half-maximal at 0.04 µg/mL (EC50).

The molecule B3 gave an EC50 of 0.02 µg/mL.

B4: the EC50 was 0.05 µg/mL.

B5 gave an EC50 of 0.01 µg/mL.

B6 yielded an EC50 of 0.01 µg/mL.

A further test deals with T2, soluble rhesus MSLN (87BIC). Kind of test: protein ELISA, coated soluble rhesus MSLN (87BIC). The protocol:
(§3) The wells of a 96-well plate are coated with 50 μL of purified human or rhesus MSLN in a carbonate coating buffer (5.3 g NaHCO₃ and 3.2 g Na₂CO₃ in 2 L H₂0) or HyClone Dulbecco's phosphate buffered saline (DPBS; Hyclone, cat #SH30028.02) at a concentration of 1-2 μg/mL and incubated overnight at 4° C. Afterwards, the plate wells are washed with well wash solution (phosphate buffered saline containing 0.05% polysorbate 20). The plate wells are then blocked by adding Super Block Blocking Buffer T20 (Thermo Scientific, #37536) for 1-2 hours at room temperature followed by washing with well wash solution. Next, 50 μL/well hybridoma supernatant fraction (used neat), or purified antibody starting at 10 μg/mL and serially diluted 4- or 5-fold in ELISA buffer (DPBS+0.1% BSA+0.05% polysorbate 20 is added to the wells. The plates are incubated for an hour at room temperature, then the wells washed with well wash solution and 50 μL/well horseradish […] (HRP) conjugated anti-species IgG diluted 1:3000-5000 in ELISA buffer is added to the wells. HRP conjugated anti-species IgG include goat anti-mouse IgG-HRP (Southern Biotech, cat #1030-05), goat anti-rat IgG-HRP (Southern Biotech, cat #3030-05), and goat anti-human IgG-HRP (Jackson Immunologics, cat #109-036-098). The plates are incubated for an hour at room temperature, then the wells washed with well wash and 50 μL/well ABTS Peroxidase Substrate (Kirkgaard & Perry Laboratories) is added to the wells. After 10 minutes the OD at 405 nm is measured using an ELISA plate reader.
as §2
For B1, the midpoint of the response, the EC50, lay at 0.01 µg/mL.

As for B2, the EC50 was determined as 0.02 µg/mL.

The molecule B3 yielded an EC50 of 0.02 µg/mL.

B4 registered an EC50 of 0.02 µg/mL.

Another test addresses T3, membrane-bound human MSLN. Kind of test: cell ELISA, OVCAR3 cells (endogenous human MSLN).
In turn, B1 registered a 50% effective concentration (EC50) of 0.01 µg/mL.

Take B2: the EC50 came out at 0.01 µg/mL.

Molecule B3 gave an EC50 of 0.01 µg/mL.

Molecule B4 had an EC50 of 0.01 µg/mL.

In the case of B6, the EC50 is 0.01 µg/mL.

A further test deals with T4, soluble human MSLN (87BGR) (human, UniProt Q13421 296-598).
T4 construct: Purified soluble protein coated on the ELISA plate; also called HuMSLN (87BGR); purified human MSLN
T4 sequence (Q13421 other isoform, or with tags, fused parts or gaps limits assumed, form in doubt): as the sequence (Q13421 other isoform, or with tags, fused parts or gaps limits assumed) above
Kind of test: protein ELISA, coated soluble human MSLN (87BGR). The protocol:
as §3, §2
For the molecule B1, a half-maximal response (EC50) required 0.03 µg/mL.

As for B2, the EC50 came to 0.03 µg/mL.

Turning to B3, the 50% effective concentration (EC50) came out at 0.04 µg/mL.

In the case of B4, the EC50 was found to be 0.04 µg/mL.

Take B5: the EC50 is 1.37 µg/mL.

The molecule B6 gave an EC50 of 0.11 µg/mL.
